The record followed here is PMC7340788, “Structure of the yeast Swi/Snf complex in a nucleosome free state” (Nature Communications, 2020).

The chains are these.
T1: Swi3 (S. cerevisiae, UniProt P32591 1-825)
T1 construct: Swi3, subunit of the S. cerevisiae Swi/Snf complex; endogenous protein; two copies (chains A and B) in the model; also called Swi3A; Swi3B; source: endogenous, S. cerevisiae; purified as part of the Swi/Snf complex through Snf6-3Flag (ANTI-FLAG M2 resin, Superose 6)
T1 sequence (looked up): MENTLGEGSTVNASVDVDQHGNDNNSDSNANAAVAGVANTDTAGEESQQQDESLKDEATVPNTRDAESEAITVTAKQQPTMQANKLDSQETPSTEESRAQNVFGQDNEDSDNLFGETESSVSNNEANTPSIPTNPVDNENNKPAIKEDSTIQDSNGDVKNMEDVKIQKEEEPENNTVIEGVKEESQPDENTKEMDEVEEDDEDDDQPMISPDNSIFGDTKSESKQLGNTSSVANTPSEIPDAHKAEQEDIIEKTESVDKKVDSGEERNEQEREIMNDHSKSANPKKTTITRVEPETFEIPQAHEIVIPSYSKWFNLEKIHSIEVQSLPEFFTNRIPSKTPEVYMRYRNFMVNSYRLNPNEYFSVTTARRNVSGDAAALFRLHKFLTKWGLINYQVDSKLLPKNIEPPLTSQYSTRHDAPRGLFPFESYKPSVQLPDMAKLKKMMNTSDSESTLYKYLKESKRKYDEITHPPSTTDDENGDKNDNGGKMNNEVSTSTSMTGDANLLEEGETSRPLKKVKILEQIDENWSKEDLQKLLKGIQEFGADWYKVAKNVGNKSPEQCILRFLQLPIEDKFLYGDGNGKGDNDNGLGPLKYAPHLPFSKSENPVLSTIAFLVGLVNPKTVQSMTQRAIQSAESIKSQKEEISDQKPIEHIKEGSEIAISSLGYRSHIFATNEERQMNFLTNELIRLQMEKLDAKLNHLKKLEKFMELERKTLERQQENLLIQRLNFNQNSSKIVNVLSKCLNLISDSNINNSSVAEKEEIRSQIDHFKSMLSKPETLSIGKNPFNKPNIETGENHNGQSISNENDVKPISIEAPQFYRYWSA

B1: Snf12 (natural protein, S. cerevisiae, UniProt P53628 1-566, looked up)
chain: MSKVMKPSNGKGSRKSSKAATPDTKNFFHAKKKDPVNQDKANNASQITPTVPHSHPSDMVIPDHLAELIPELYSFQQLVDSEKRLDHFIHLRNLHMKRMVAQWERSKLSQEFLYPHLNFPNVKFLRIFISNVSENQPWQMDTNNEADLMALENATWTMRIEGRLLDNVQANDPAREKFSSFIESIVVDFKNKENDNVPSTKFNAAPEENATEGPSDKKLNLNLPLQFSLPNGDNSTTTNTDQNNATMGEETAKKDMSSTTPKLESVKWQYDPNNPVDFDGLDIKRVGSENVECTISILRKSSPEEPFMSYSPQLTAIIGLKSGTSHDAIFSIYKYIHLNELLTNDESAFENLMGNRNNHNSNTSTSKMLDAASSQVSIVKLDTQLITLLPSSLKESSPDTMKLTDLLSLINSTHLLPLQPIEIDYTVRVDKASTYGELVLDIEVPDVNALKFNNTQRESQIGAAELNENARELEQIKPKIALQDKEITSVLSNLHESNKRYRFFKKISEDPVKALNECIASTSNALKVLSGDEGYNEDMVRRANFYKENEAMLRENIEVILSNGRM
notes: Snf12, subunit of the S. cerevisiae Swi/Snf complex; endogenous protein; Part of the SWIB domain was homology modelled; For cryo-EM the complex was cross-linked with 1 mM BS3; source: endogenous, S. cerevisiae; purified as part of the Swi/Snf complex through Snf6-3Flag (ANTI-FLAG M2 resin, Superose 6)
B2: Snf5 (natural protein, S. cerevisiae, UniProt P18480 1-905, looked up)
chain: MNNQPQGTNSVPNSIGNIFSNIGTPSFNMAQIPQQLYQSLTPQQLQMIQQRHQQLLRSRLQQQQQQQQQTSPPPQTHQSPPPPPQQSQPIANQSATSTPPPPPAPHNLHPQIGQVPLAPAPINLPPQIAQLPLATQQQVLNKLRQQAIAKNNPQVVNAITVAQQQVQRQIEQQKGQQTAQTQLEQQRQLLVQQQQQQQLRNQIQRQQQQQFRHHVQIQQQQQKQQQQQQQHQQQQQQQQQQQQQQQQQQQQQQQQQQQQQQQQQQQQQGQIPQSQQVPQVRSMSGQPPTNVQPTIGQLPQLPKLNLPKYQTIQYDPPETKLPYPTYWSDKKADTDTLLYEQIIQRDKINKYSLIRETNGYDPFSIYGFSNKEYISRLWHTLKYYQDLKNTRMKSITSTSQKIPSASIWGNGYSGYGNGITNTTTRVIPQVEVGNRKHYLEDKLKVYKQAMNETSEQLVPIRLEFDQDRDRFFLRDTLLWNKNDKLIKIEDFVDDMLRDYRFEDATREQHIDTICQSIQEQIQEFQGNPYIELNQDRLGGDDLRIRIKLDIVVGQNQLIDQFEWDISNSDNCPEEFAESMCQELELPGEFVTAIAHSIREQVHMYHKSLALLGYNFDGSAIEDDDIRSRMLPTITLDDVYRPAAESKIFTPNLLQISAAELERLDKDKDRDTRRKRRQGRSNRRGMLALSGTSASNTSMNGVHNTVAAGNASSLPPGEILLPDIADIPRTFRTPVPSTLMPGGVDVGPSVESYELRNTTTYKSRPDRPKPVSPPCYIIDHIPGHSLLLSIKLPGKVNTKEEFAAAPNDTSSGTNAMLPSPESLKTKLNSNIRAGVTIPSIPNPIANHTVTNSPNPTLQPVIPGGAASKSVPTPSLPIAPPVAPHDSEATLLTNSNNGSSNNNTQNT
notes: Snf5, subunit of the S. cerevisiae Swi/Snf complex; endogenous protein; For cryo-EM the complex was cross-linked with 1 mM BS3; source: endogenous, S. cerevisiae; purified as part of the Swi/Snf complex through Snf6-3Flag (ANTI-FLAG M2 resin, Superose 6)
B3: Swi1 (natural protein, S. cerevisiae, UniProt P09547 1-1314, looked up)
chain: MDFFNLNNNNNNNNTTTTTTTTNNNNTNNNNTNNNNNPANNTNNNNSTGHSSNTNNNTNNNNTNTGASGVDDFQNFFDPKPFDQNLDSNNNNSNSNNNDNNNSNTVASSTNFTSPTAVVNNAAPANVTGGKAANFIQNQSPQFNSPYDSNNSNTNLNSLSPQAILAKNSIIDSSNLPLQAQQQLYGGNNNNNSTGIANDNVITPHFITNVQSISQNSSSSTPNTNSNSTPNANQQFLPFNNSASNNGNLTSNQLISNYAASNSMDRSSSASNEFVPNTSDNNNNSNNHNMRNNSNNKTSNNNNVTAVPAATPANTNNSTSNANTVFSERAAMFAALQQKQQQRFQALQQQQQQQQNQQQQNQQPQQQQQQQQNPKFLQSQRQQQQRSILQSLNPALQEKISTELNNKQYELFMKSLIENCKKRNMPLQSIPEIGNRKINLFYLYMLVQKFGGADQVTRTQQWSMVAQRLQISDYQQLESIYFRILLPYERHMISQEGIKETQAKRIFLQQFLQELLKKVQQQQQAAALANANNNINSASSAPTPAAPGASVPATAAPGTEAGIVPVSANTPKSLNSNININVNNNNIGQQQVKKPRKQRVKKKTKKELELERKEREDFQKRQQKLLEDQQRQQKLLLETKLRQQYEIELKKLPKVYKRSIVRNYKPLINRLKHYNGYDINYISKIGEKIDSNKPIFLFAPELGAINLHALSMSLQSKNLGEINTALNTLLVTSADSNLKISLVKYPELLDSLAILGMNLLSNLSQNVVPYHRNTSDYYYEDAGSNQYYVTQHDKMVDKIFEKVNNNATLTPNDSNDEKVTILVDSLTGNQLPTPTPTEMEPDLDTECFISMQSTSPAVKQWDLLPEPIRFLPNQFPLKIHRTPYLTSLKKIKDEIDDPFTKINTRGAEDPKVLINDQLSTISMILRNISFSDNNSRIMSRNFYLKRFISDLLWLVLIHPENFTCNRKILNFKKDLVIVLSNISHLLEIASSIDCLLILILVISFGQPKLNPMASSSSFGSESLTFNEFQLQWGKYQTFGVDILAKLFSLEKPNLNYFKSILLNKNTGNNLYDRNSNNNHKDKKLLRRLLNLYNDNNKNNNNRHNLLNDVVSFLFSAIPLQQVLSQSADPSLLIDQFSPVISQSLTSILVIVQKILPLSNEVFEISENNSDSNSNNNGNKDSSFNFNKNLPFVWLSSEENIGSGLLKLSEIILNINNSTSKNTLLQQQNYSKVLLPSINISCVQLIKCLVEKSICFENCLNNDPEILKKIASIPNLFPTDLEIFQLFTNPSVDIQIINQYQLLYNLKNDILTNLE
notes: Swi1, subunit of the S. cerevisiae Swi/Snf complex; endogenous protein; Only part of the chain is modelled (C-terminus with seven ARM repeats, α1, β1); For cryo-EM the complex was cross-linked with 1 mM BS3; source: endogenous, S. cerevisiae; purified as part of the Swi/Snf complex through Snf6-3Flag (ANTI-FLAG M2 resin, Superose 6)
B4: Snf6 with a C-terminal 3-Flag tag (natural protein, S. cerevisiae, UniProt P18888 1-332, looked up)
chain: MGVIKKKRSHHGKASRQQYYSGVQVGGVGSMGAINNNIPSLTSFAEENNYQYGYSGSSAGMNGRSLTYAQQQLNKQRQDFERVRLRPEQLSNIIHDESDTISFRSNLLKNFISSNDAFNMLSLTTVPCDRIEKSRLFSEKTIRYLMQKQHEMKTQAAELQEKPLTPLKYTKLIAAAEDGSRSTKDMIDAVFEQDSHLRYQPDGVVVHRDDPALVGKLRGDLREAPADYWTHAYRDVLAQYHEAKERIRQKEVTAGEAQDEASLQQQQQQDLQQQQQVVTTVASQSPHATATEKEPVPAVVDDPLENMFGDYSNEPFNTNFDDEFGDLDAVFF
notes: Snf6, subunit of the S. cerevisiae Swi/Snf complex; expressed from its own locus; Bait of the purification; For cryo-EM the complex was cross-linked with 1 mM BS3; source: endogenous locus tagged by homologous recombination, S. cerevisiae; purified (ANTI-FLAG M2 resin, FLAG peptide elution, Superose 6); not shown: 3-Flag, C-terminal, kept

Common to all, as to test: cryo-EM structure; endogenous Swi/Snf complex purified as a whole through Snf6-3Flag, nucleosome-free, cross-linked with 1 mM BS3, 20 mM HEPES pH 7.4, 350 mM NaCl; 4.1 Å average, 2.9 Å for the base module
Common to all, as to conditions: both partners purified

For assay [1], the target named is B3.
Assay [2] concerns the target T2, Snf2 (S. cerevisiae, UniProt P22082 1-1703).
T2 construct: Snf2, ATPase-containing subunit of the S. cerevisiae Swi/Snf complex; endogenous protein; Only the preHSA domain and the HSA helix are seen in the map; the ATPase domain is absent from the structure; For cryo-EM the complex was cross-linked with 1 mM BS3; source: endogenous, S. cerevisiae; purified as part of the Swi/Snf complex through Snf6-3Flag (ANTI-FLAG M2 resin, Superose 6)

Assay [3] addresses T1, Swi3.

T2 sequence (P22082 whole entry, the tested form may be a part): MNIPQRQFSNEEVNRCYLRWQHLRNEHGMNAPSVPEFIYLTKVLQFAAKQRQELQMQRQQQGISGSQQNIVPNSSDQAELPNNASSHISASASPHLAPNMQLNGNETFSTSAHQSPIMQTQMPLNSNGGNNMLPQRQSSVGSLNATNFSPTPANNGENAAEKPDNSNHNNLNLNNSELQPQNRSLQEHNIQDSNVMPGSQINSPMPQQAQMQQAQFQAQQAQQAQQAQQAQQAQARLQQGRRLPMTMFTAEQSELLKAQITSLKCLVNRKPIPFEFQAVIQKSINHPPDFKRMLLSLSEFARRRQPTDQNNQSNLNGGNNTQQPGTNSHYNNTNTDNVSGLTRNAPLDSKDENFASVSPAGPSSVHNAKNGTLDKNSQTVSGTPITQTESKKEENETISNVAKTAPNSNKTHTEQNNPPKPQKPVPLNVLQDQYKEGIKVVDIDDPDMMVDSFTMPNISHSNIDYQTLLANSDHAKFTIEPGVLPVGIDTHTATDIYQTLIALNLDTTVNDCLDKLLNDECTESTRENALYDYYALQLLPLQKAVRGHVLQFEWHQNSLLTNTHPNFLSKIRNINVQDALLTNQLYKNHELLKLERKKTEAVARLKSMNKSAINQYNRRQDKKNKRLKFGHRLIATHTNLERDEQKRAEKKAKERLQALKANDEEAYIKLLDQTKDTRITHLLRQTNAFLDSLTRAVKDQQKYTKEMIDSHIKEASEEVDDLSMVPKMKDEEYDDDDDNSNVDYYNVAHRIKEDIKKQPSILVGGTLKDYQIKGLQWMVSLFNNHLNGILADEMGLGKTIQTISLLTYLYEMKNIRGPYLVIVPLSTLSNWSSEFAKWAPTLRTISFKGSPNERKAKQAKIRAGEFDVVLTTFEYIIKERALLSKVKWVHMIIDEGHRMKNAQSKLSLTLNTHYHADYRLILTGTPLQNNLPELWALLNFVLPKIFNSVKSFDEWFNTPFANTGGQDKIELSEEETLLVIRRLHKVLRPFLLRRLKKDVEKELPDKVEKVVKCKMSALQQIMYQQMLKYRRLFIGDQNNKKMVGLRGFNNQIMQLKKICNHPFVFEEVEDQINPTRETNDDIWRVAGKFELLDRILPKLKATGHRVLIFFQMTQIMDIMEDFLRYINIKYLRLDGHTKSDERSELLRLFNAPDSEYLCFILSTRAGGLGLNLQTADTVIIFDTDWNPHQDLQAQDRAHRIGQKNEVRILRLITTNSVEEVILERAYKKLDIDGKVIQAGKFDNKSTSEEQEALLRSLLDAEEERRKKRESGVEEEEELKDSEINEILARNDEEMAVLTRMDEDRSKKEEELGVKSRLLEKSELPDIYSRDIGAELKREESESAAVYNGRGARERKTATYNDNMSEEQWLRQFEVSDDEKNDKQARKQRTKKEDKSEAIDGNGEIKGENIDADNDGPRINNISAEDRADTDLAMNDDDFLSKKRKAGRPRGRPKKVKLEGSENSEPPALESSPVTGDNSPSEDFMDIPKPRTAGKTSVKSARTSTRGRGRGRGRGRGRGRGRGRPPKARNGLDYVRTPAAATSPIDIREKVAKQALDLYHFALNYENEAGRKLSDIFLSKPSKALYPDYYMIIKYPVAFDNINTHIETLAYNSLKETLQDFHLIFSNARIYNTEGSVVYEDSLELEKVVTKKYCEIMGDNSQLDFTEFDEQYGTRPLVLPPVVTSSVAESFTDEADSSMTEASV

Take B1: the binding result in assay [1], in assay [2] and in assay [3] was “binds” throughout.
As for B2, the binding result in assay [1] and in assay [2] was “binds” throughout.
For the molecule B3, in assay [2], the binding result is on record as “binds”.
With B4, the binding result in assay [1] and in assay [2] was “binds” in each case.
